The results in this text go back to US20120141441.

A value given as a limit tells only on which side of the number the result lay.

The subject of this data set is Cre recombinase (bacteriophage P1 ?). The data set is described as follows: cell_activity. The note with it: excision of reprogramming cassette in iPSC; typically 50% or more of clones; verified by Southern blot and PCR.

With “loxP sites flanking reprogramming cassette (p4FLR)”, the activity (% clones with EGFP loss) is above 50.
